Reference: article PMC12667520, “SP3 and DEP1 Orchestrate Panicle Architecture by Jointly Regulating APO2 Expression in Rice”

T1: SP3 (Dof15) (Oryza sativa)
T1 chain: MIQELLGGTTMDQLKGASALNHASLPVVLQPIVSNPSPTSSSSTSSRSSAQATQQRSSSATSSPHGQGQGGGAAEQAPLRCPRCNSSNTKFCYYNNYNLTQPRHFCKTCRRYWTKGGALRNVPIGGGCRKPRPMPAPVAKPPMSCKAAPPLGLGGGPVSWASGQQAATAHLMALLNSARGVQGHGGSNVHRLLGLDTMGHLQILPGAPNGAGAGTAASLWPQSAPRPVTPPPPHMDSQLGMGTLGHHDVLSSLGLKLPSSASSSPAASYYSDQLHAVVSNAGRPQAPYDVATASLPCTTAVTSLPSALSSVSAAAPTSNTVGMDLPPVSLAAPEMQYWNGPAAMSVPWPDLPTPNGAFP

T2: DEP1 (Oryza sativa, UniProt Q67UU9 1-426)
T2 sequence: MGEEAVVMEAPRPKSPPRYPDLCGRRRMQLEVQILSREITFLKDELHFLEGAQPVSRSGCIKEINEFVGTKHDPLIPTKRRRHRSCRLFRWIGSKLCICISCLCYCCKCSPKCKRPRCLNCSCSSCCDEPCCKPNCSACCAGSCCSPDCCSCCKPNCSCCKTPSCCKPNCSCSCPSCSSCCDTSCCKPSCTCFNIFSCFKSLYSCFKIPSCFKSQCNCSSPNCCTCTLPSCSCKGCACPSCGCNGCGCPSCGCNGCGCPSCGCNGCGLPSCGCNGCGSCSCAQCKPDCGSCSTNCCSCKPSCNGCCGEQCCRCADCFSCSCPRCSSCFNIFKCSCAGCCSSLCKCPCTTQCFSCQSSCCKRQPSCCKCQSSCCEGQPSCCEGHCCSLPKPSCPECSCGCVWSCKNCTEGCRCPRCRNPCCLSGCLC


Legend:
[1] = molecular target: FLAG-DEP1 (rice (Oryza sativa)) (UniProt Q67UU9)
[2] = molecular target: T1, SP3 (Dof15); experiment: EMSA; LightShift Chemiluminescent EMSA Kit (Thermo), manufacturer's instructions; buffer, salt, pH and temperature not stated; details: protein: recombinant; tags: GST (pGEX-6p); label: biotin; blunt
[3] = molecular target: T2, DEP1; experiment: as above; details: protein: recombinant; tags: MBP; label: biotin; blunt

share of DEP1-GFP signals localised to the nucleus in rice protoplasts: 16% without SP3, 76% with SP3-HA co-expressed [1] [%]	Molecule	binding result [2]	binding result [3]
76	HA-SP3 (natural protein)	–	–
–	Bio-Probe (APO2 promoter) (dsDNA) DNA 1: ACGCATGCAGGAGTATCTTTTTTCTTCGGAAGAGGAACAGTGAC DNA 2: GTCACTGTTCCTCTTCCGAAGAAAAAAGATACTCCTGCATGCGT	binds	no binding
